Reference: PMC4278327, “Pathways driving the endocytosis of mutant and wild-type EGFR in cancer” (Oncoscience, 2014)

Target: T1, wild-type EGFR (epidermal growth factor receptor) (UniProt P00533 25-1210)
T1 construct: EGFR, wild type, expressed from the plasmid pcDNA3.1-EGFR; Probably the whole human receptor, expressed in cells that have no EGFR of their own; source: MDA-MB-435, transfected (pcDNA3.1-EGFR), in lysate
Experiment: co-IP; lysates of MDA-MB-435 cells transfected with EGFR plasmids, immunoprecipitated with the anti-EGFR antibody IMC-C225; western blot with the anti-S2R^PGRMC1 antibody PGR-UK1; representative of three independent experiments
Details: partners not purified

B1: S2R^PGRMC1 (sigma-2 receptor / progesterone receptor membrane component 1) (natural protein)
chain: not shown
notes: PGRMC1 (progesterone receptor membrane component 1), endogenous in MDA-MB-435 human breast cancer cells, detected with the antibody PGR-UK1; source: endogenous, MDA-MB-435 lysate
fold co-precipitated, wild-type EGFR against the EGFR-Δ747-749/A750P mutant: 2.4 fold
